Experimental data from the DeepSol protein solubility set.

assay: soluble on expression in E. coli; label from the status in PepcDB or PDB records

Sequence | soluble on expression in E. coli
MRFEDIGISKVDKVCLVDRLGCQENLVGTVHVTTTHIIFRAENGSKELWLATGLISSVEKGTLTAAGCMLVIRCKHFQVITLLISRDKSCQDLYETLQRAAKPVSVNVTELLAFENREPVEDVRGWRRLDWNSEMTRQGITKSQWTESNINEGYTICDTYPNKLWFPTAASTSVLLGSCKFRSRGRLPVLTYFHQQTEAALCRCAQPLTGFSARCVEDEKLMELVGKANTNSDNLFLVDTRPRVNAMVNKVQGKGFEDERNYSNMRFHFFDIENIHVMRASQARLLDAVTKCRDVTEYWKTLEASGWLKHVRSVVECSLFLAESISRGTSCVVHCSDGWDRTSQVVALCQLLLDPYYRTIHGFQVLIEKDWLGFGHKFDDRCGHVGALNDEAGKEVSPIFTQWLDCIWQIMQQKPRAFQFNERYLIEMHEHVYSCQFGTFIGNCDKDRRDLNLSKRTKSLWTWMDARHDDYMNPFYSPTAHVALLDLDTRAARFTVWTAMYNRFDNGLQPRERLEDLTMAAMEHVGVLESHVAQLRTRLAELKTQQNQQITSTNTPTNMVDSGMSSATDDLKNLSLSHPLDPLSSTLPILERATSQESGVMDSSLYYPDEALTKYSLKWQPLRGADRCSNPACRGEFSSTIERRIHCHLCGMIFCRRCLKVSADERERVCDKCKTD | not soluble
TKAHRDAARRIAAESFVLLKNDNVTLRPGTPAEPLLPFNPKGNIAVIGPLADSRTNMPGTWSVAAVLDRCPSLVEGLKEMTAGKANILYAKGSNLISDASYEERATMFGRSLNRDNRTDEQLLNEALTVANQSDIIIAALGESSEMSGESSSRTDLNIPDVQQNLLKELLKTGKPVVLVLFTGRPLTLTWEQEHVPAILNVWFGGSEAAYAIGDALFGYVNPGGKLTMSFPKNVGQIPLYYAHKNTGRPLAQGKWFEKFRSNYLDVDNEPLYPFGYGLSYTTFSYGDIDLSR | not soluble
MGSDKIHHHHHHMSVAHENARRIISDILGKQNIERVWFVGCGGSLTGFWPGKYFLDCEASKLAVGYITSNEFVHATPKALGKNSVVILASQQGNTAETVAAARVAREKGAATIGLVYQPDTPLCEYSDYIIEYQWARYPETVDPAQQKAAYSLWLALEILAQTEGYAQYDELVSAFGRFSDVVHGAQRQVQEDAQRFAAEWKDEKVVYMMGSGPSFGAAHQESICILLEMQWINSASIHSGEYFHGPFEITEPGTPFILLQSSGRTRPLDDRAIRFIERYQGKLQLIDADKLGIQDLSTDVGEYFCGLLHNCVLDVYNLALATARNHPLTTRRYMWKVEY | not soluble
RKDMEMNINFNMSYQKNKLLSLSGEYNGMHMTASDITPIGSLYGAGQNGGDNNVVYQIVGQPLGVFYLPHCKGLKENELGGYSYDIEDLNDDGEIDFSDGGDRYIAGQATPKVTIGSNISFRYKSFDIAMQINGAFGHKIFNGTGLAYTNMSIFPDYNVLKGAPEKNIIDQNVSDYWLEKGDYVNIEHITIGYNIPMKSKAVKSLRLSAGISNLATITGYSGLTPMINSYVVSNTLGIDDKRTYPLYRTYSLGLSIQF | not soluble
MSQATARHSVTSSPVSTGQLEEPISRLRVPTEDELPQKLRDIHMRIRKKFGFVPNFLTALSANPGTALRIMAFYEHLFDQSNSHLSASERELIAVVTSVATGCSYCVFNHRPALAAALGDRVLADRIARNHNDVTLAPRERALADLAQKLAATPHSVGSDDFARLRAIGFSEPAILEVLEVSAFFSYGNRLTIALNVLPDPQFFVSAMAGDPLEHHHHHH | not soluble
MFILSKIADLVRIPPDQFHRDTISAITHQLNNKFANKIIPNVGLCITIYDLLTVEEGQLKPGDGSSYINVTFRAVVFKPFLGEIVTGWISKCTAEGIKVSLLGIFDDIFIPQNMLFEGCYYTPEESAWIWPMDEETKLYFDVNEKIRFRIEREVFVDVKPKSPKERELEERAQLENEIEGKNEETPQNEKPPAYALLGSCQTDGMGLVSWWEHHHHHH | soluble
MGSDKIHHHHHHMYIESFKQHFSAIDDHRQSAKVTYPLFDVLFGSLCAVIASSNGWFEIREYILGHHSWFKKQKMFIDGIPADDTIARIVSMIEPDSFNACFLAWMKSVHQLTNGEVIAIDGKTLRGSYNRDDRSSTIHMISAYASANKLVLGQLKAEQKSNEITAIPTLLKMLDLRGALVTIDAMGCQTAIATTIIDKGGDYLLAVKNNQGNLAKAINKAFSSHRSAGLSDDHVNIEKSHGRIENRACFVLSSAELDGDFTHWEALKSIVMVESFRAVKGKTASLEYRYYISSKVLSAEQALSATREHWGIESMHWVLDVSMNEDECQIYKNNGAENLAYLRHMSLNMLQKEPTKLSIVGKRKRCLMNPAFLEKVLIAGLCAPTK | not soluble
MLSSSEKVAGQGVSGAYRELVRLLHRAAKDQLIVTENLPIEADVTHFHTIDFPYYLSTFQKKRSGRKIGYVHFLPATLEGSLKIPFFLKGIVKRYVFSFYNRMEHLVVVNPMFIEDLVAAGIPREKVTYIPNFVNKEKWHPLPQEEVVRLRTDLGLSDNQFIVVGAGQVQKRKGIDDFIRLAEELPQITFIWAGGFSFGGMTDGYEHYKKIMENPPKNLIFPGIVSPERMRELYALADLFLLPSYNELFPMTILEAASCEAPIMLRDLDLYKVILEGNYRATAGREEMKEAILEYQANPAVLKDLKEKAKNISREYSEEHLLQIWLDFYEKQAALGRK | not soluble
MHLPQMGYDRAITVFSPDGRLFQVEYAREAVKRGATAIGIKCKEGVILIADKRVGSKLLEKDTIEKIYKIDEHICAATSGLVADARVLIDRARIEAQINRLTYDIPITVKELAKKICDFKQQYTQYGGVRPFGVSLLIAGVNEVPKLYETDPSGALLEYKATAIGMGRMAVTEFFEKEYRDDLSFDDAMVLGLVAMGLSIESELVPENIEVGYVKVDDRTFKEVSPEELKPYVERANERIRELLKK | soluble
MSAPTMRSTSILTEHLGYPPISLVDDIINAVNEIMYKCTAAMEKYLLSKSKIGEEDYGEEIKSGVAKLESLLENSVDKNFDKLELYVLRNVLRIPEEYLDANVFRLENQKDLVIVDENELKKSEEKLREKVNDVELAFKKNEMLLKRVTKVKRLLFTIRGFKQKLNELLKCKDDVQLQKILESLKPIDDTMTLLTDSLRKLYVDSESTSSTEEVEALLQRLKTNGKQNNKDFRTRYIDIRTNNVLRKLGLLGDKEDEKQSAKPDARTQAGDIVSIDIEEPQLDLLDDVL | soluble
MGSDKIHHHHHHNEDDIFDESSAQRAIASVNECQEILKGAANGWLLEYYTGEDGEYGGFNVLARFDGNNVIMAADFATDNYEIGEESTSLYKVESYQGTELSFDSYNELIHEFCEPSGYNSPGYAGDYEFVFRSVSKEKIVLTGKKHGVTLIMTPLPAETNWQEKLTNIANVVSQASYVTYKLIVNGQEITKMGQEEHAFSVTKVDETGETTVSLYPFIYTEEGIKMYEPLVVNGVEINNFKWDNENLTYICTDTGVDAKIEFYCPEGYLNYLGNYILQLANGQRIQLELKQKMIGKSFAMNFALSGTPIEFVYNYNMTTDCIDVPSQTVGVYQGYNVLLYPGIPGGNFYADDSAVFQGRIANTDPLTIKFTYVNNPICTLMLLVYQKTDGWYGFSTMFQDVTLIKVD | not soluble
MGSDKIHHHHHHMIRETRQIHVGNVAIGGGAPCSVQSMCNTDTRDVAATLSQVLSLSSAGCEIVRCAVPDMAAAEALGEIKRQSPIPVIADIHFDYRLALRVLEGGIDGLRLNPGNIGERWKVEEVVKAARERLVPIRIGVNAGSLEKELLEKYGHPTAEAMVESALGHVRILEDIGYDQIKISLKASDVMKTVEAYRLLAQKVDYPLHIGITEAGTIFSGTIKSSVGLGILLADGIGDTMRVSLTGDPVDEVRVGFEILKALGLRQRGINFVSCPTCGRCQINLIGVAQEVENRLAAIDTPLTVAVMGCVVNGPGEAREADVGIAGGKGEGLLFRHGEIVRKVPEAEMADALIAEVEQMAKEKTHS | not soluble
MGSDKIHHHHHHMEKEFRILNIVSAKIWGGGEQYVYDVSKALGLRGCTMFTAVNKNDELMRRRFSEVSSVFTTRLHTFNGLFSLYALTRFIRENHISHLMIHTGKIAALSVLLKKLTGVRLIFVKHNVVANKTDFYHRLIQKNTDRFICVSRLVYDVQTADNPFKEKYRIVHNGIDTGRFPPSQEKPDSRFFTVAYAGRISPEKGLENLIEACVILHRKYPQIRLKLAGHGHPDYMCRLKRGVSASGAEPFVSFEGFTEKLASFYRQSDVVVLPSLVPEAFGLSLCEAMYCRTAVISNTLGAQKEIIEHHQSGILLDRLTPESLADEIERLVLNPEAKNALATAGHQCVAARFTINHTADKLLDAI | not soluble
MTNQPTEIAIVGGGMVGGALALGLAQHGFSVTVIEHAEPAPFVADSQPDVRISAISAASVSLLKGLGVWDAVQAMRCHPYRRLETWEWETAHVVFDAAELKLPLLGYMVENTVLQQALWQALEAHPKVTLRVPTSLIALHRDNDLQELELKGGETIRAKLVIGADGANSQVRQMAGIGVHAWQYAQSCMLISVQCENDPGDSTWQQFTPDGPRAFLPLFDNWASLVWYDSPTRIRQLQNMNMAQLQAEIAKHFPSRLGYVTPLAAGAFPLTRRHALQYVQPGLALVGDAAHTIHPLAGQGVNLGYRDVDALIDVLVNARSYGEAWASYPVLKRYQMRRMADNFIMQSGMDLFYAGFSNNLPPLRFVRNLGLMAAERAGVLKRQALKYALGLLEHHHHHH | not soluble
MRARIYQPARNAMTSGMAKTRKWVLEYAPGSAREVDPLMGWTSSSDTQSQVRLRFDSKEEALDYARAHGIDAVVTEPHKRKPNLRARGYGENFATDRRGPWTH | soluble
MSILAEPKRKQKISIDPQNLTWKNDDQKLSKKLMEKMGWSEGDGLGRNRQGNADSVKLKANTSGRGLGADKMADYDSTWISHHDDFADLLAALNKNKEQEPEQTEEEKNAAAEKISIELKSKSIRRRIHYQKFTRAKDTSNYSDSHKKGILGYGRLKSDNAEEKIEEKTENSSVKSDSSDSQADSQEKKEGNNTVSTLSVGDYFAAKMAALKAKREAAAANQTEVKMEIKTEVEEEESDEEKARRKAEKKERKRLRREQRDKEETLETVETILEVKQEVKEEIIDEEFDEAERKRLKKEKKRLKRLREQQQPENEGAEGGEADEEEIPRKRKKHTEDEH | not soluble
MGSDKIHHHHHHMITNTHLLISYIVYKNLYNNFNFKLDMAAFALGNIKPDFINKEIKCSHTLNESLDSLIEYSNKLVKYNNSIRKFSLALGIVCHYICDYFCIYHRDGNEKKGILEHLIYEVKLDSNFTMMFLKGKLNYFGCRDYGGSIKKIIFNIEKEYKLEEKDFKRDIKYALFAAIESSKFIVYSSKLYGN | not soluble
MTTGTEEARIPLDPFVTDLDGESARLRAAGPLAAVELPGGVPVWAVTHHAEAKALLTDPRLVKDINVWGAWRRGEIPADWPLIGLANPGRSMLTVDGAEHRRLRTLVAQALTVRRVEHMRGRITELTDRLLDELPADGGVVDLKAAFAYPLPMYVVADLMGIEEARLPRLKVLFEKFFSTQTPPEEVVATLTELASIMTDTVAAKRAAPGDDLTSALIQASENGDHLTDAEIVSTLQLMVAAGHETTISLIVNAVVNLSTHPEQRALVLSGEAEWSAVVEETLRFSTPTSHVLIRFAAEDVPVGDRVIPAGDALIVSYGALGRDERAHGPTADRFDLTRTSGNRHISFGHGPHVCPGAALSRMEAGVALPALYARFPHLDLAVPAAELRNKPVVTQNDLFELPVRLAHHHH | soluble
MFPLNDLSLKTQPVQLNKVTSNTESTIKQHELVSDDAIINELSSELVSCLGNGKFTPISEDSKLFNMLSEFKLLHSEYFEWGDYSLWFQDFSIYNKIGFIMIEKIRELVTHPFGINLEHHHHHH | not soluble
MSALEETQSLCKQVDDICNNGMESVEQCNKLLDQLSKIPMSIEIIQKTNIGIKVNMMRKKVTDDAVAKRAKNIIKDWKNVVDGKSKSQDDGGAPPAKKHRKESVEEAKPEKKKIEAPYKRPEPSSRPEIVAQFASASFPPKHLENDETRLKSAQLLLSALRFGDMPQGTLDPEELAVQIEEKLYSVHRDTNKSYSAAVRSRIFNLRDKKNLALRENVLTGVVRAEKFATMTSEEMASAEIREMRDKFTKEAILEHQMSVQQGTPSDMFKCGKCGKKNCTYTQLQTRSSDEPMTTFVFCLECGNRWKFC | soluble
